Positions count from the first letter of the chain named.
B1: 1A6G10: anti-human Claudin18.2 murine monoclonal antibody, VH SEQ ID NO: 46, VL SEQ ID NO: 47 (antibody, V domains shown)
VH: QVQLKESGGGLVKPGGSLKLSCAASGFTFSSYAMSWVRQTPEKRLEWVAAIHSNGGSTYNSDTMRDRFTISRDHAKNTLYLQMSSLRSEDTALYYCGRQSFGNALDYWGQGTSVTVSS
VL: DIQMTQSPSSLTVTAGEKVTLTCKSSQSLLNSGNQKNYLTWYQQKPGQPPKLLIYWASTRESGVPDRFTGSGSGTFFTLTISSVQAEDLAVYFCQNDYVYPFTFGAGTQLELK
B2: 2D3A11-HZ1: humanized anti-Claudin18.2 antibody, VH SEQ ID NO: 38, VL SEQ ID NO: 39 (antibody, V domains shown)
VH: QVQLVQSGAEVKKPGASVKVSCKASGYTFTSYVVHWVRQAPGQGLEWMGYINPYNADSKYSQEFQGRATLTSDKSASTAYMELSSLRSEDMAVYYCSRSYYGNSFDVWGQGTLVTVSS
VL: DIVMTQSPDSLAVSLGERATINCKSSQSLLNSGNQKNYLTWYQQKPGQSPKLLFFWASTRQSGVPDRFSGSGSGTDFTLTISSLQAEDVAVYYCQNDYYFPFTFGQGTKVEIK
B3: 2D3A11-HZ2: humanized anti-Claudin18.2 antibody, VH SEQ ID NO: 40, VL SEQ ID NO: 39 (antibody, V domains shown)
VH: B2 VH with Q6E
VL: B2 VL

Columns and labels:
human Claudin18.2 [1] = molecular target: T1, human Claudin18.2 (Homo sapiens, UniProt P56856); assay: Cell-based ELISA affinity of murine antibodies on HEK293T-Claudin18.2 (human) cells; format: binding
T1 construct: expressed in transfected cells
Description: (§1) The affinity of the anti-human Claudin18.2 murine monoclonal antibodies was evaluated by cell-based ELISA. The experimental procedures were as follows: The day before the experiment, HEK293T-Claudin18.2 (human) cells were plated in a 96-well plate at 5×10^4 cells/well. On the day of the experiment, the supernatant was removed, the cells in each well were washed once with 300 μL of PBS, and 100 μL of 4% paraformaldehyde was added to each well for fixation at room temperature for 20 min. Paraformaldehyde was then removed, and the cells in each well were washed twice with 300 μL of PBS. 100 μL of 2% BSA (in PBS) was added to each well, and the mixture was blocked at 37° C. for 2 h. After removing the blocking solution, each antibody subjected to gradient dilution (diluted with 2% BSA (in PBS), starting at […], in a 3-fold gradient, for a total of 11 concentration points) was added to the plate at 100 μL/well, and the mixture was incubated at 37° C. for 2 h. The supernatant was removed, and the cells in each well were washed three times with 300 μL of PBST. 100 μL of an anti-mouse IgG HRP secondary antibody (Jackson, cat #115-035-003) in 2% BSA was added to each well, and the mixture was incubated at 37° C. for 1 h. The secondary antibody was then removed, and the cells in each well were washed five times with 300 μL of PBST, followed by the addition of 100 μL of a TMB substrate (Huzhou InnoReagents Co., Ltd.) per well for color development for 5-20 min. The reaction was stopped by adding 50 μL of 2 N HCl to each well, and OD450 nm values were read on a microplate reader (manufacturer: MD, model: SpectraMax). The values obtained were plotted by GraphPad Prism to calculate the EC50 value.

[2] = tested on: HEK293T-Claudin18.2 (human) cells; assay: CDC activity, guinea pig serum killing experiment; format: cell-based; conditions: 20% guinea pig serum, 5 h
Description: CDC activity of the anti-human Claudin18.2 humanized monoclonal antibodies was detected by a guinea pig serum killing experiment. The experimental procedures were as follows: HEK293T-Claudin18.2 (human) cells were digested, collected by centrifugation, plated at 50000 cells/well, and incubated overnight. The supernatant was discarded, and 100 μL of each test antibody subjected to gradient dilution with DMEM+20% guinea pig serum (Beijing Bersee, BM361Y) was added to each well. The mixture was incubated at 37° C. for 5 h, and 20 μL of a CCK8 reagent (Suzhou Rhino Bio, QDY-003-D) was added to each well. The mixture was allowed to react for 1-4 h, and readings were taken at 450 nm on a microplate reader.

[3] = tested on: HEK293T-Claudin18.2 (human) cells; assay: ADCC activity, fluorescein reporter system (Jurkat-NFAT-CD16a); format: cell-based; conditions: HEK293T-Claudin18.2 (human) target cells, 5 h
Description: ADCC activity of the anti-human Claudin18.2 humanized monoclonal antibodies was detected by a fluorescein reporter system. The experiment was carried out using a Rhinogen® Bio-Glory One-Step Firefly Luciferase Assay kit (Suzhou Rhino Bio, RA-GL04), following the manufacturer's instructions. The experimental procedures were as follows: HEK293T-Claudin18.2 (human) cells were digested, collected by centrifugation, resuspended in DMEM+1% FBS, and then plated at 50000 cells/well. Jurkat-NFAT-CD16a cells were collected by centrifugation and resuspended in 1640+1% FBS, and then plated at 100000 cells/well. Each test antibody subjected to gradient dilution was added, and the mixture was incubated at 37° C. for 5 h. 50 μL of a Bio-Glory One-Step luciferase substrate was added to each well, and readings were taken on a microplate reader (MD, SpectraMax i3x).

human Claudin18.2 [4] = molecular target: T1, human Claudin18.2; assay: Cell-based ELISA affinity of humanized antibodies on HEK293T-Claudin18.2 (human) cells; format: binding; conditions: HEK293T-Claudin18.2 cells
Description: as §1
The affinity of the anti-human Claudin18.2 humanized monoclonal antibodies was determined by cell-based ELISA. The cell-based ELISA was conducted as described in Example I-3.

human Claudin18.2 [5] = molecular target: T1, human Claudin18.2; assay: Cell-based FACS affinity on HEK293T-Claudin18.2 (human) cells; format: binding
Description: The affinity of the anti-human Claudin18.2 humanized antibodies was detected by flow cytometry. The experimental procedures were as follows: The adherent cultured HEK293T-Claudin18.2 (human), NUGC4-Claudin18.2 (human) and NUGC4 cells were digested, collected by centrifugation, and washed three times with pre-cooled PBS. The cells were resuspended in 1% BSA (in PBS) and added to a 96-well pointed bottom plate at 3×10^5 cells/well, with a volume of 50 μL per well. Each test antibody was diluted with 1% BSA (in PBS) (starting at 100 μg/mL, diluted in a 3-fold gradient, for 10 concentration points). The test antibody subjected to gradient dilution was added to the cells at 50 μL/well, and the mixture was well mixed and incubated at 4° C. for 1 h. The cells were collected by centrifugation, washed three times with pre-cooled PBS, and resuspended in 50 μL of 1% BSA (in PBS). 1 μL of a fluorescent secondary antibody (Biolegend-410712) was added to each well, and the mixture was well mixed and incubated at 4° C. for 0.5 h. The cells were collected by centrifugation, washed three times with pre-cooled PBS, resuspended in 200 μL of PBS, and assayed on a machine.

human Claudin18.2 [6] = molecular target: T1, human Claudin18.2; assay: Cell-based ELISA affinity on NUGC4 cells endogenously expressing human Claudin18.2; format: binding
human Claudin18.1 = molecular target: T2, human Claudin18.1 (Homo sapiens, UniProt P56856); assay: FACS specificity of humanized antibodies on HEK293T-Claudin18.1 (human) cells; format: binding; conditions: antibody 50 μg/mL, APC secondary antibody
T2 construct: expressed in transfected cells
Description: The specificity of the anti-human Claudin18.2 humanized monoclonal antibodies was determined by flow cytometry (FACS). The experimental procedures were as follows: HEK293T-Claudin18.1 (human) cells were digested, collected by centrifugation, washed three times with pre-cooled PBS, resuspended in 1% BSA (in PBS), and added to a 96-well pointed bottom plate at 3×10^5 cells/well. Each test antibody with a final concentration of 50 μg/mL was added, and the mixture was incubated at 4° C. for 1 h. The cells were washed three times with pre-cooled PBS, and then 1 μL of a fluorescent secondary antibody (APC: Biolegend-410712 or PE: BioLegend-410708) was added to each well. The mixture was incubated at 4° C. for 0.5 h, and the cells were washed three times with pre-cooled PBS, then resuspended, and assayed on a flow cytometer. For reference, anti-human Claudin18.1 positive control antibodies (positive control antibody-1 and positive control antibody-2) were included in the experiment.

[7] = tested on: cynomolgus monkey Claudin18.2; assay: FACS species affinity on HEK293T-Claudin18.2 (cynomolgus monkey) cells; format: binding; conditions: cell-based FACS
Description: The affinity of the anti-human Claudin18.2 humanized monoclonal antibodies for Claudin18.2 of different species was determined by flow cytometry (FACS). The experimental procedures were as follows: HEK293T-Claudin18.2 (cynomolgus monkey) cells, HEK293T-Claudin18.2 (mouse) cells and HEK293T-Claudin18.2 (rat) cells were digested, collected by centrifugation, washed three times with pre-cooled PBS, resuspended in 1% BSA (in PBS), and added to a 96-well pointed bottom plate at 3×10^5 cells/well. Each antibody subjected to gradient dilution was added, and the mixture was incubated at 4° C. for 1 h. The cells were washed three times with pre-cooled PBS, and then 1 μL of a fluorescent secondary antibody (APC: Biolegend-410712) was added to each well. The mixture was incubated at 4° C. for 0.5 h, and the cells were washed three times with pre-cooled PBS, then resuspended, and assayed on a flow cytometer.

human Claudin18.2 [8] = molecular target: T1, human Claudin18.2; assay: Cell-based ELISA affinity of humanized antibodies on L929-Claudin18.2 (human) cells; format: binding; conditions: L929-Claudin18.2 cells

Molecule | Affinity HEK293T-18.2 EC50 (human Claudin18.2 [1]) | CDC activity EC50 [2] | ADCC activity EC50 [3] | Affinity detected by cell-based ELISA (EC50, ng/mL) HEK293T-Claudin18.2 (human Claudin18.2 [4]) | HEK293T-Claudin18.2 EC50 (human Claudin18.2 [5]) | HEK293T-Claudin18.2 Maximum signal value (human Claudin18.2 [5]) | NUCG4 EC50 (human Claudin18.2 [6]) | NUCG4 Maximum signal value (human Claudin18.2 [6]; OD450) | Mean APC fluorescence signal value (human Claudin18.1) | Median APC fluorescence signal value (human Claudin18.1) | Positive rate (%) (human Claudin18.1) | HEK293T-Claudin18.2 (cynomolgus monkey) EC50 [7] | Affinity detected by cell-based ELISA (EC50, ng/mL) L929-Claudin18.2 (human Claudin18.2 [8])
B1 | 0.005024 µg/mL |  |  |  |  |  |  |  |  |  |  |  | 
B2 |  | 1.904 µg/mL | 0.04791 µg/mL | 12.67 ± 2.1(N = 2) ng/mL | 0.3687 µg/mL | 132603 | 0.09518 µg/mL | 0.316 | 281 | 233 | 0.69% | 0.1719 µg/mL | 17.12 ± 0.85(N = 2) ng/mL
B3 |  |  |  | 14.01 ± 2.29(N = 2) ng/mL |  |  |  |  | 382 | 329 | 1% |  | 25.62 ng/mL
